# Assay results published in article PMC9709975, “Chromatin-associated microprocessor assembly is regulated by the U1 snRNP auxiliary protein PRP40” (The Plant Cell, 2022).
# T1: PRE-MRNA PROCESSING PROTEIN 40b (AtPRP40b), recombinant (Arabidopsis thaliana, UniProt F4JCC1 1-992)
# T1 construct: AtPRP40b, Arabidopsis thaliana U1 snRNP auxiliary protein; Made as MBP-6xHis-AtPRP40b from a pMal-derived plasmid; MBP cut off with TEV protease; Detected with anti-PRP40b; source: E. coli BL21-CodonPlus(DE3)-RIL, purified (Ni-NTA, TEV cleavage, second Ni-NTA, size exclusion chromatography); not shown: MBP, N-terminal, cleaved
# T1 sequence (looked up): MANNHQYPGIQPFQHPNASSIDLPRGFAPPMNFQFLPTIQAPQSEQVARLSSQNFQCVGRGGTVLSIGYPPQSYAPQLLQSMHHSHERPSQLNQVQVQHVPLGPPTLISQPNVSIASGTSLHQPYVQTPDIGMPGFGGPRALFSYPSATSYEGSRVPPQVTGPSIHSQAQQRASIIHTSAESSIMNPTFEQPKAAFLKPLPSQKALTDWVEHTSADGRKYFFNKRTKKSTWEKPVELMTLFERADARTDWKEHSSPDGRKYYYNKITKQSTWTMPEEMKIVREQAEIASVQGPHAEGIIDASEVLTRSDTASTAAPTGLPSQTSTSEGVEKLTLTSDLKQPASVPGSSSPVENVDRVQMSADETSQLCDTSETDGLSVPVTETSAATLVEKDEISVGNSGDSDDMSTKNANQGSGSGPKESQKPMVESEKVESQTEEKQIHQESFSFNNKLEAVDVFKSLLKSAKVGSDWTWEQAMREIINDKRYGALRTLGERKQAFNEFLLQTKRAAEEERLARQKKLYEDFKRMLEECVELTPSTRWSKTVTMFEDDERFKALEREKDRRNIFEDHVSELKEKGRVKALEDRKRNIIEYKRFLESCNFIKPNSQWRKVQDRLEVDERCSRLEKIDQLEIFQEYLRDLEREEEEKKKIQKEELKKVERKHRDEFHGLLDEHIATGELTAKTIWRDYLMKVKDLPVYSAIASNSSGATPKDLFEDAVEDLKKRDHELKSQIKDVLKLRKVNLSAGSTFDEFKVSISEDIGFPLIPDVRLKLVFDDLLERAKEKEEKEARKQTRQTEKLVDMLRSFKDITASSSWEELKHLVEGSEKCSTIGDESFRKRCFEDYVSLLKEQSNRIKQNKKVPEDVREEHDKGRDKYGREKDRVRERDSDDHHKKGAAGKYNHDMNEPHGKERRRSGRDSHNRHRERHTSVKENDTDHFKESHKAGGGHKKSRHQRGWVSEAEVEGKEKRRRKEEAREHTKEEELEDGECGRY
# Target: T1, PRE-MRNA PROCESSING PROTEIN 40b …
# Test: pull-down; 2 µg biotinylated CTD peptide on streptavidin paramagnetic particles; 2 µg of SE variant and AtPRP40b together; 1.5 h at 4°C in PBS pH 8.3, 5% glycerol, 1 mM DTT, 0.1% NP-40; five washes, immunoblot
# Details: both partners purified
binder,measurement,value
"SERRATE (SE), full length, recombinant (natural protein, Arabidopsis thaliana, UniProt Q9ZVD0 1-720, looked up, SERRATE, Arabidopsis thaliana, core component of the plant microprocessor; full length (720 residues by the printed deletion Δ681-720); Made as MBP-6xHis-SE from a pMal-derived plasmid; MBP cut off with TEV protease; source: E. coli BL21-CodonPlus(DE3)-RIL, purified (Ni-NTA, TEV cleavage, second Ni-NTA, size exclusion chromatography); not shown: MBP, N-terminal, cleaved) MADVNLPPSDSVDNRLPEKSTSSSPPPPPPSSSLPQQEQEQDQQQLPLRRERDSRERRDERDIERPPPNRRERDRSPLPPPRRDYKRRPSLSPPPPYRDRRHSPPQRRSPPQKRYRRDDNGYDGRRGSPRGGYGPPDRRFGYDHGGGYDREMGGRPGYGDERPHGRFMGRYQDWEGGRGGYGDASNSGNPQRDGLMSYKQFIQELEDDILPSEAERRYQEYKSEYITTQKRAFFNTHKEEDWLKNKYHPTNLLSVIERRNDLAQKVAKDFLLDLQSGTLDLGPAVTALNKSGRTSEPNSEDEAAGVGKRKRHGMGGAKENELLSAAPKAPSFTSDPKRILTDVEQTQALVRKLDSEKKIEENVLQGSETEKSGREKLHSGSTGPVVIIRGLTSVKGLEGVELLDTLVTYLWRVHGLDYYGKVETNEAKGLRHVRAEGKVSDAKGDENESKFDSHWQERLKGQDPLEVMAAKEKIDAAATEALDPHVRKIRDEKYGWKYGCGAKGCTKLFHAAEFVYKHLKLKHTELVTELTTKVREELYFQNYMNDPNAPGGQPATQQSGPRDRPIRRKPSMENRLRDDRGGRRERDGRANGNDRNDRSEDQQRGDNDGGNPGEVGYDAFGGQGGVHVPPFLSDINPPPMLMPVPGAGPLGPFVPAPPEVAMQMFRDPSGPNPPFEGSGRGGPAPFLLSPAFRQDPRRLRSYQDLDAPEEEVTVIDYRSL",binding result,binds
